The target of test [1] is T1, FcγRIIIa (human, UniProt P08637 17-208).
T1 construct: also called FcγRIIIa/b (first member)
The experiment in a line: stated in the variant's description; method not given.

Test [2] addresses T2, FcγRIIIb (human, UniProt O75015 17-200).
T2 construct: also called FcγRIIIa/b (second member)
The test is described as above.

Test [3] has as its target T1, FcγRIIIa. The test can be described thus: stated in the variant's description; FcγR binding profile in FIG. 22A.
The target in test [4] is T2, FcγRIIIb. The test is described as above.

T1 sequence (P08637 17-208 limits assumed): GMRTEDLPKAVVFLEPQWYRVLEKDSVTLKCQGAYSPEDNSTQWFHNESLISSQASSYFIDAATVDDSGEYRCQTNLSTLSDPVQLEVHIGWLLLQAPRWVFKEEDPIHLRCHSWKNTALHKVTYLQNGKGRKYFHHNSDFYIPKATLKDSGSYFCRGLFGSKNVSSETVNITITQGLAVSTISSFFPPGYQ
T2 sequence (O75015 17-200 limits assumed): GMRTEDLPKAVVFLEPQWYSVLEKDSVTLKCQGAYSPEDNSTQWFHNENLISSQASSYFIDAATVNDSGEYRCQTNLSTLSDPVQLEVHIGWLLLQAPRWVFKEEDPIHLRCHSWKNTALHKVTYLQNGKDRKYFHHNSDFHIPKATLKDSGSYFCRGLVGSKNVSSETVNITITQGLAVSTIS

B1: Flu1_ALIE (antibody)
heavy: not shown
light: DIQMTQSPSSLSASVGDRVTITCRTSQSLSSYLHWYQQKPGKAPKLLIYAASSLQSGVPSRFSGSGSGTDFTLTISSLQPEDFATYYCQQSRTFGQGTKVEIKRTVAAPSVFIFPPSDEQLKSGTASVVCLLNNFYPREAKVQWKVDNALQSGNSQESVTEQDSKDSTYSLSSTLTLSKADYEKHKVYACEVTHQGLSSPVTKSFNRGEC
For B1, the binding result in the test with FcγRIIIa [1] and with FcγRIIIb [2] was “binds” in each case.

B2: Flu1_afucosylated (antibody)
heavy: not shown
light: B1 light
notes: also called the afucosylated antibody
As for B2, the binding result in the test with FcγRIIIa [1] and in the test with FcγRIIIb [2] was “binds” in each case.

B3: 3C05_ALIE (antibody)
heavy: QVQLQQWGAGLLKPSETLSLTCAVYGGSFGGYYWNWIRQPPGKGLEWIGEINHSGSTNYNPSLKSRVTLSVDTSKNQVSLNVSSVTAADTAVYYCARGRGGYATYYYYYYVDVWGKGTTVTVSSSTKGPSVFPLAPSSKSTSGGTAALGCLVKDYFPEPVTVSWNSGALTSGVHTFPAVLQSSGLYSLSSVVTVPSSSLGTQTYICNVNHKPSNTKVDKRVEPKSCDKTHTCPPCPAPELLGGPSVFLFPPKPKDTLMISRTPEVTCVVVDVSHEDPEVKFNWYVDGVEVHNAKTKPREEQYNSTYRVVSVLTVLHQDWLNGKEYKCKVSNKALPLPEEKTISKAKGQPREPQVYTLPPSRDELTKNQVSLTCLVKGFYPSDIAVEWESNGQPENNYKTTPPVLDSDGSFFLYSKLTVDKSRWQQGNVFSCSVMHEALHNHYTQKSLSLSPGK
light: EIVLTQSPATLSLSPGERATLSCRASQSVSSYLAWYQQKPGQAPRLLIYDASKRATGIPARFSGSGSGTDFTLTISSLEPEDFAVYYCQQRSNWLTFGGGTKVELERTVAAPSVFIFPPSDEQLKSGTASVVCLLNNFYPREAKVQWKVDNALQSGNSQESVTEQDSKDSTYSLSSTLTLSKADYEKHKVYACEVTHQGLSSPVTKSFNRGEC
In the case of B3, the binding result in the test with FcγRIIIa [3] and with FcγRIIIb [4] was “binds” in each case.

B4: 1A01_ALIE (antibody)
heavy: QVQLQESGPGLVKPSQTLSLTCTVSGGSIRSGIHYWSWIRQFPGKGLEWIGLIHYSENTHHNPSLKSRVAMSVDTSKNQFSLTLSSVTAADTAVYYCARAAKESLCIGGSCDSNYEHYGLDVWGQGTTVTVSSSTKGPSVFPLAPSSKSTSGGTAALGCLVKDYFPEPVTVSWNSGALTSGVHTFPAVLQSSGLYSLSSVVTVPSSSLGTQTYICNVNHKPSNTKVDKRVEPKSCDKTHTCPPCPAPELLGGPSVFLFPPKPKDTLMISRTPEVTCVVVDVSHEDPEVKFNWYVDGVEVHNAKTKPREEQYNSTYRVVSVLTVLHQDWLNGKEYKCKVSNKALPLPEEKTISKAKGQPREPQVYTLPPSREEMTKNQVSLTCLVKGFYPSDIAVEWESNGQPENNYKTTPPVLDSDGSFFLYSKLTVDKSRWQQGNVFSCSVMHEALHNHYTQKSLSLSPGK
light: DIQMTQSPSSLSASIGDRVTITCRASQSIRNYLNWYQQKPGKAPKLVIYAVSNLQSGVPSRFSGSGSGTDFTLTISSLQPEDLATYYCQQSYSTLPYTFGQGTKVEIKLERADAAPTVSIFPPSSEQLTSGGASVVCFLNNFYPKDINVKWKIDGSERQNGVLNSWTDQDSKDSTYSMSSTLTLTKDEYERHNSYTCEATHKTSTSPIVKSFNRNEC
As to B4, the binding result with FcγRIIIa [1] and with FcγRIIIb [2] was “binds” in each case.

The values above are taken from patent US20220298230A1 (ROCKEFELLER UNIVERSITY, published 2022).
